This is an account of results in patent publication US20230201151A1, “FORMULATIONS AND METHODS FOR TREATING ACUTE RESPIRATORY DISTRESS SYNDROME, ASTHMA, OR ALLERGIC RHINITIS” (UNIVERSITY OF FLORIDA RESEARCH FOUNDATION, INC., priority 2020, published 2023).

In the assay the target is T1, ENaC (Homo sapiens, UniProt P37088+P51168+P51170).
T1 construct: primary cultures of human bronchial epithelial cells (HBEC) harvested from normal human lungs; endogenous in cells; host or cells: primary human bronchial epithelial cells (HBEC) from donor lungs, differentiated at an air-liquid interface
T1 sequence (P37088 1-669): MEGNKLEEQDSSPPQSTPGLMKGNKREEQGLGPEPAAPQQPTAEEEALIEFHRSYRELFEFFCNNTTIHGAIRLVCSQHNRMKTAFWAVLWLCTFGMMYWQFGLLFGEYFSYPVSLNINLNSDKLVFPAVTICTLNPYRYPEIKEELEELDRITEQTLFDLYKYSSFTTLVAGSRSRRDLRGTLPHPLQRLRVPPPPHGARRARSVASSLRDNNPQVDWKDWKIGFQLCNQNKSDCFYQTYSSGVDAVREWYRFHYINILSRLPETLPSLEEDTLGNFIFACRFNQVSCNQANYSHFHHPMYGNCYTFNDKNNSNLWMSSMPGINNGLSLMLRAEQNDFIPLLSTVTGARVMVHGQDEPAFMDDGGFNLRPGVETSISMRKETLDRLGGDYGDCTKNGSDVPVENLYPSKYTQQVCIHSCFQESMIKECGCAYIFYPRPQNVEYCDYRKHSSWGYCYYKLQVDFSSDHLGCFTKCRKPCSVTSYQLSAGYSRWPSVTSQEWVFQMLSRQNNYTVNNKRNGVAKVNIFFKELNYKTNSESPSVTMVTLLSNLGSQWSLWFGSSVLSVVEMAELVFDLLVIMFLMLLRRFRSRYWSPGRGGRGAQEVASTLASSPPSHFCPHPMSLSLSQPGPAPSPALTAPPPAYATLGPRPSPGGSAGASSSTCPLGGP
T1 sequence (P51168 1-640): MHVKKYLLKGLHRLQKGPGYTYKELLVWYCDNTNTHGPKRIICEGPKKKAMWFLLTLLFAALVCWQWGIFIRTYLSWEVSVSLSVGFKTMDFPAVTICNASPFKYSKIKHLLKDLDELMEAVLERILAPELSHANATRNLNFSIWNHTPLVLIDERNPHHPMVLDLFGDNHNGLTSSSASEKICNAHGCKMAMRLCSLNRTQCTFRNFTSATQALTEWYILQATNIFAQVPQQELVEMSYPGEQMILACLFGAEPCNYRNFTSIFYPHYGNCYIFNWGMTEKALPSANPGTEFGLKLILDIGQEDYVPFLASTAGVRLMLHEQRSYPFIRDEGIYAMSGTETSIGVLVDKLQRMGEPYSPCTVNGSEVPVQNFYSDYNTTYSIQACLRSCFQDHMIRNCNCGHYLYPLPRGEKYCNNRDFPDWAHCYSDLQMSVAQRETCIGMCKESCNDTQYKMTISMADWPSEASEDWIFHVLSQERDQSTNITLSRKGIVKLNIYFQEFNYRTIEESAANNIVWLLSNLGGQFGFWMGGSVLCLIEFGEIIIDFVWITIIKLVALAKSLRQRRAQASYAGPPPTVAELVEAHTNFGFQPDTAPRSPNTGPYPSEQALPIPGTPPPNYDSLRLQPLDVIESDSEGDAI
T1 sequence (P51170 1-649): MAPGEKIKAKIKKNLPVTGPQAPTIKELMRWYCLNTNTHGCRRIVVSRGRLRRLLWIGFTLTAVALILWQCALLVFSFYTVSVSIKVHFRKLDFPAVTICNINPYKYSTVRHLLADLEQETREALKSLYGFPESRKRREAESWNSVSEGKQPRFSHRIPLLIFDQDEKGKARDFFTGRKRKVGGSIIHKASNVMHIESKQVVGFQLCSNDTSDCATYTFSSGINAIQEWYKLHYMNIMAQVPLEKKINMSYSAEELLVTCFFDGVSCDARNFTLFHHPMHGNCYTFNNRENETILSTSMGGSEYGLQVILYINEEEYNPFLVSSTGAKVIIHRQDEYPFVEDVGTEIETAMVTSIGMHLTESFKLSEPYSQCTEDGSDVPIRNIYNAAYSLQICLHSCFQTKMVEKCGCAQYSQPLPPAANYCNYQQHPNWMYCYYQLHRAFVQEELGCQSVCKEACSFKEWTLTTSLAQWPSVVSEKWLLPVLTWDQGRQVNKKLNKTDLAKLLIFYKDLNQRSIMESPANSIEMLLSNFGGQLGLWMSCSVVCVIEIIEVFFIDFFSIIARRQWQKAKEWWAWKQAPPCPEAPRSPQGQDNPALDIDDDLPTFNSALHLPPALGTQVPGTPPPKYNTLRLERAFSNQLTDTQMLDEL
Kind of assay: ENaC current (benzamil-sensitive current) in IL-13-treated differentiated HBEC, Examples 1-2. It is filed as cell-based. On the procedure: IL-13: abcam (#ab9577); Stock solution: 10 μg/mL water; 20 ng=2 μL Stock/mL media Media change with IL-13 every other day
Experimental design: IL-13 treatment with 20 ng/mL media for 4 and 14 days. Ussing chamber experiment in Basic Ringer (5 mM glucose in basolateral side).
In some embodiments, experimental studies called for determination of: • Baseline values (30 min) • Presence or absence of 6 μM Benzamil (on apical side) (15 min) • Presence or absence of 20 μM CFTRinh 172 (on apical and basolateral sides) (15 min) • Presence or absence 10 μM CaCCinh AO1 (on apical and basolateral sides) (10 min) • Presence or absence of 20 μM Bumetanide (on basolateral side) (15 min)
For Day 0 analysis: • IL-13 treatment: 0 ng/mL media • Ussing chamber experiment in basic ringer or amino acid (AA) formulations. • In addition, S side added 5 mM Glucose
Treatment for 4 days or 14 days analysis: • IL-13 treatment: 20 ng/mL media • Ussing chamber experiment in basic ringer or AA formulations. • In addition, S side added 5 mM Glucose
In some embodiments, the day 4 and day 14 experimental studies called for determination of: • Baseline values (30 min) • Presence or absence of 6 μM Benzamil (on mucosal side) (15 min) • Presence or absence of 20 μM Bumetanide (on serosal side) (15 min) • Presence or absence of 20 μM CFTRinh 172 (on mucosal and serosal sides) (15 min) […]

As for “IL-13: Th2 cytokine (Abcam) added to HBEC culture medium”, the “ENaC current versus IL-13 concentration” value (FIG. 2) was “dose-dependent reduction”. For the setting “IL-13 exposure (FIG. 3)”, the “day of maximum reduction in ENaC current” value is 8 days.
